Experimental data as given in US20110300138A1 (published 2011).

Experiments:
Test in all cases: cell-based or functional assay
[1] = biological target: human TSH receptor (full length, wild type) expressed in CHO cells (human) (UniProt P16473)
[2] = biological target: human TSH receptor (TSHR), wild type, expressed in CHO cells (human) (UniProt P16473)
[3] = biological target: human TSH receptor (full length, wild type) expressed on CHO cells (human) (UniProt P16473)
[4] = biological target: human TSH receptor (wild type), expressed on transfected CHO cells (human) (UniProt P16473)

B1: 5C9 IgG (antibody, from another filing, V domains shown)
VH: EVQLVESGGGLIQPGGSLRLSCAASGFTVSSNYMSWVRQAPGKGLEWVSVTYSGGSTSYADSVKGRFTISRDNSKNTLYLQMNSLRAEDTAVYYCARGGRYCSSISCYARSGCDYWGQGTLVTVSS
VL: AIQMTQSPSSLSASVGDRVTITCRASQSISNYLNWYQQKPGKAPKLLIYAASSLQSGVPSRFSGSGSGTDFTLTISSLQPEDFATYYCQQSYSSPSTTFGQGTKLEIK
[1]
  % Inhibition; T4 serum + 100 µg/mL 5C9 IgG: 97.6%
  % Inhibition; T5 serum + 100 µg/mL 5C9 IgG: 98.3%
  % Inhibition; T6 serum + 100 µg/mL 5C9 IgG: 97.8%
  Cyclic AMP concentration; 100 µg/mL 5C9 IgG alone: 1.2 pmol/mL
  Cyclic AMP concentration; HBD + 100 µg/mL 5C9 IgG: 1.8 pmol/mL
  Cyclic AMP concentration; T4 serum + 100 µg/mL 5C9 IgG: 1.9 pmol/mL
  Cyclic AMP concentration; T5 serum + 100 µg/mL 5C9 IgG: 1.1 pmol/mL
  Cyclic AMP concentration; T6 serum + 100 µg/mL 5C9 IgG: 1.8 pmol/mL
[2]
  % Inhibition of constitutive activity; 0.001 µg/mL 5C9 IgG: 0%
  % Inhibition of constitutive activity; 0.01 µg/mL 5C9 IgG: 1%
  % Inhibition of constitutive activity; 0.1 µg/mL 5C9 IgG: 13%
  % Inhibition of constitutive activity; 0.3 µg/mL 5C9 IgG: 50%
  % Inhibition of constitutive activity; 1 µg/mL 5C9 IgG: 61%
  % Inhibition of constitutive activity; 3 µg/mL 5C9 IgG: 63%
  % Inhibition of constitutive activity; 10 µg/mL 5C9 IgG: 56%
  % Inhibition of constitutive activity; 100 µg/mL 5C9 IgG: 52%
  Cyclic AMP concentration (constitutive activity); 0.001 µg/mL 5C9 IgG: 19.1 pmol/mL
  Cyclic AMP concentration (constitutive activity); 0.01 µg/mL 5C9 IgG: 18.6 pmol/mL
  Cyclic AMP concentration (constitutive activity); 0.1 µg/mL 5C9 IgG: 16.3 pmol/mL
  Cyclic AMP concentration (constitutive activity); 0.3 µg/mL 5C9 IgG: 9.3 pmol/mL
  Cyclic AMP concentration (constitutive activity); 1 µg/mL 5C9 IgG: 7.4 pmol/mL
  Cyclic AMP concentration (constitutive activity); 3 µg/mL 5C9 IgG: 6.9 pmol/mL
  Cyclic AMP concentration (constitutive activity); 10 µg/mL 5C9 IgG: 8.3 pmol/mL
  Cyclic AMP concentration (constitutive activity); 100 µg/mL 5C9 IgG: 9 pmol/mL
[3]
  % Inhibition of M22 IgG (3 ng/mL) stimulation; 0.001 µg/ml 5C9 IgG: 0%
  % Inhibition of M22 IgG (3 ng/mL) stimulation; 0.01 µg/ml 5C9 IgG: 0%
  % Inhibition of M22 IgG (3 ng/mL) stimulation; 0.1 µg/ml 5C9 IgG: 91.2%
  % Inhibition of M22 IgG (3 ng/mL) stimulation; 0.5 µg/ml 5C9 IgG: 97%
  % Inhibition of M22 IgG (3 ng/mL) stimulation; 1 µg/ml 5C9 IgG: 97.6%
  % Inhibition of M22 IgG (3 ng/mL) stimulation; 5 µg/ml 5C9 IgG: 99.4%
  % Inhibition of M22 IgG (3 ng/mL) stimulation; 10 µg/ml 5C9 IgG: 99.1%
  % Inhibition of M22 IgG (3 ng/mL) stimulation; 50 µg/ml 5C9 IgG: 99.1%
  % Inhibition of M22 IgG (3 ng/mL) stimulation; 100 µg/ml 5C9 IgG: 98.8%
  Cyclic AMP concentration; 3 ng/mL M22 IgG + 0.001 µg/ml 5C9 IgG: 39.3 pmol/mL
  Cyclic AMP concentration; 3 ng/mL M22 IgG + 0.01 µg/ml 5C9 IgG: 42.3 pmol/mL
  Cyclic AMP concentration; 3 ng/mL M22 IgG + 0.1 µg/ml 5C9 IgG: 2.9 pmol/mL
  Cyclic AMP concentration; 3 ng/mL M22 IgG + 0.5 µg/ml 5C9 IgG: 1 pmol/mL
  Cyclic AMP concentration; 3 ng/mL M22 IgG + 1 µg/ml 5C9 IgG: 0.8 pmol/mL
  Cyclic AMP concentration; 3 ng/mL M22 IgG + 5 µg/ml 5C9 IgG: 0.2 pmol/mL
  Cyclic AMP concentration; 3 ng/mL M22 IgG + 10 µg/ml 5C9 IgG: 0.3 pmol/mL
  Cyclic AMP concentration; 3 ng/mL M22 IgG + 50 µg/ml 5C9 IgG: 0.3 pmol/mL
  Cyclic AMP concentration; 3 ng/mL M22 IgG + 100 µg/ml 5C9 IgG: 0.4 pmol/mL
  Cyclic AMP concentration; 5C9 IgG 100 µg/mL alone: 0.5 pmol/mL
[4]
  % Inhibition (constitutive activity); 0.1 µg/mL 5C9 IgG: 0%
  % Inhibition (constitutive activity); 0.2 µg/mL 5C9 IgG: 0%
  % Inhibition (constitutive activity); 1 µg/mL 5C9 IgG: 45.9%
  % Inhibition (constitutive activity); 2 µg/mL 5C9 IgG: 45.3%
  % Inhibition; 5C9 IgG 0.01 µg/mL + T11: 4.3%
  % Inhibition; 5C9 IgG 0.1 µg/mL + T11: 19.8%
  % Inhibition; 5C9 IgG 1 µg/mL + T11: 23%
  % Inhibition; 5C9 IgG 10 µg/mL + T11: 13.9%
  % Inhibition; 5C9 IgG 100 µg/mL + T11: 11.1%
  % Inhibition; pTSH 3 ng/mL + 0.001 µg/mL 5C9: 0.2%
  % Inhibition; pTSH 3 ng/mL + 0.01 µg/mL 5C9: 0%
